B1: ZNF207 (parent)
chain: CHICHKKLYTGPGLAIHCMQVHKE

Variants of: B1
Assay: protein stability index of a GFP-peptide fusion (GPS, HEK-293T) (PSI 1-6); higher = more stable
Details: c terminus: a fixed tail appended
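Note: lentivirally expressed fusions sorted by FACS into six bins by GFP to DsRed ratio, PSI derived from sequencing read proportions per bin multiplied by bin number.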

Protein stability index, by site and new letter:
M19: S 4.03, V 2.94, P 3.3, G 3.41, R 3.41, N 3.9, H 4.12, Y 2.94, E 4.47, A 3.57, T 3.73, K 3.93, Q 3.81, L 2.52, W 2.48, D 3.36, I 3.47, F 3.75, C 4.56
P12: K 3.5, I 3.03, V 2.05, H 5.06, M 3.24, W 3.49, T 3.18, N 4.09, C 3.09, F 2.41, A 3.84, Y 3.73, S 3.86, G 3.09, D 4.51, E 4.48, R 3.88, L 3.46, Q 4.11
L8: Q 2.93, A 2.33, I 3.67, M 4.63, V 4.12, W 2.66, P 3.1, E 3.96, S 2.57, T 3.02, D 3.37, Y 2.33, H 3.14, N 2.97, R 1.37, C 3.16, F 2.44, K 2.42, G 3.61
K6: A 4.37, T 2.15, M 3.35, F 1.84, I 2.63, W 2.17, V 3.41, Q 4.09, L 2.36, R 3.97, H 3.51, S 3.54, N 3.25, C 3.45, D 3.28, G 3.03, Y 2.72, E 4.41, P 2.12
K7: G 3.27, C 3.63, V 4.09, A 3.92, T 3.98, W 3.27, I 3.73, S 3.66, Q 4.11, F 4.02, L 4.3, E 4.14, D 4.16, R 3.48, Y 4.2, N 4.21, P 2.55, H 3.25, M 3.86
H5: M 3.33, V 1.63, S 2.83, F 3.26, Y 2.97, N 3.18, P 2.39, Q 2.79, K 2.55, W 2.74, I 2.03, C 2.4, E 3.63, T 2.48, L 3.01, D 3.49, G 3.35, R 2.96
G13: S 3.83, N 3.77, A 4.96, C 3.65, L 2.9, P 2.43, H 4.02, M 3.64, K 3.15, Q 4.07, R 2.41, Y 2.12, F 2.11, I 2.3, T 3.37, D 4.82, E 4.3, W 2.07, V 2.54
A15: N 3.7, T 3.69, E 3.55, M 3.35, F 2.91, V 2.35, W 2.27, C 4.64, H 2.99, R 3.19, Q 3.7, D 4.37, L 2.66, Y 3.21, K 3.38, P 3.24, I 2.79, G 4.44, S 3.42
I16: W 3.16, A 3.54, S 3.72, V 3.81, Y 3.02, G 4.1, D 4.71, E 4.77, P 3.97, N 3.71, H 4.39, T 3.82, K 3.23, L 3.01, M 3.45, Q 3.9, F 3.83, R 2.71, C 4.33
Y9: P 3.64, E 4.6, D 4.9, N 3.83, A 4.31, T 3.27, K 3.29, G 3.76, I 2.72, L 3.97, H 3.62, W 2.34, F 3.16, S 4.28, R 4.11, C 3.39, M 4.14, V 3.19, Q 3.93
V21: D 3.5, M 3.72, G 3.96, N 3.48, P 3.21, S 3.71, K 3.27, W 2.89, E 3.6, I 2.49, F 3.35, L 3, Y 3.93, R 2.84, A 3.84, C 4.09, T 3.7, H 3.44, Q 2.89
C18: I 2.06, F 2.21, E 3.57, P 2.47, N 2.59, M 2.47, S 3.01, T 3.02, V 2.8, K 3.09, R 2.4, Q 2.99, D 2.75, W 1.93, Y 2.02, H 2.56, L 3.69, A 2.62, G 2.18
L14: T 3.6, P 3.9, S 3.22, R 2.79, K 3.1, F 2.9, Y 2.94, N 4.65, C 3.34, W 2.85, A 3.96, G 3.85, H 3.69, V 3, M 3.45, E 4.44, I 3.3, D 4.56, Q 3.78
H17: I 2.08, F 3.52, L 1.87, A 2.15, R 2.22, D 2.47, W 3.87, T 2.7, V 3.01, Y 2.67, P 2.78, S 3.15, N 2.25, G 2.82, Q 2.97, E 3.36, M 2.55, K 2.19, C 3.87
H22: F 1.92, N 2.35, K 2.41, D 3.04, M 2.78, C 2.64, E 2.67, A 2.65, G 1.88, I 2.41, L 2.11, P 3.15
T10: K 2.65, H 2.68, N 3.58, M 2.55, Q 3.8, R 2.52, P 3.68, W 2.56, C 2.92, S 3.31, Y 2.6, F 2.4, L 2.49, V 3.5, E 3.83, I 2.86, A 3.47, D 4.59, G 3.06
G11: E 4.53, T 2.48, W 1.36, H 2.68, C 2.31, Q 3.37, M 2.05, D 3.98, L 2.63, Y 1.56, P 3.94, K 3.34, N 3.59, F 2.63, V 2.32, A 2.67, S 3.48, I 1.58, R 3.53
Q20: F 3.4, A 3.4, R 2.62, D 3.28, N 3.85, S 1.93, V 3.88, E 3.95, C 4.79, Y 3.36, H 4.04, L 4, P 2.86, W 2.92, M 3.65, G 3.13, I 3.61, T 3.56, K 2.75

Reference: the supplement of paper PMC10567573
